The numbers were not newly measured in PMC4652169, which cites them from elsewhere.

For orientation: Kd means the constant that tells how readily two partners part at equilibrium.

For this data set, the target named is IgG Fc Fc (Homo sapiens) [IgG part: P01857]. Kind of data set: given as Ka.

Consider “Protein A Z domain (ZWT) Z domain (from UniProt P02976)”, for which the Kd was 16.9 nM.
